Test results published in a protein production outcome set (Wang et al. 2014).

Assay: label from the status in PepcDB records
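Also: failed if final PepcDB status was selected cloned or expressed and not failed if soluble or beyond.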

| Sequence | protein production |
| --- | --- |
| MTSITPVTLANCEDEPIHVPGAIQPHGALVTLRADGMVLAASENIQALLGFVASPGSYLTQEQVGPEVLRMLEEGLTGNGPWSNSVETRIGEHLFDVIGHSYKEVFYLEFEIRTADTLSITSFTLNAQRIIAQVQLHNDTASLLSNVTDELRRMTGYDRVMAYRFRHDDSGEVVAESRREDLESYLGQRYPASDIPAQARRLYIQNPIRLIADVAYTPMRVFPALNPETNESFDLSYSVLRSVSPIHCEYLTNMGVRASMSISIVVGGKLWGLFSCHHMSPKLIPYPVRMSFQIFSQVCSAIVERLEQGRIAELLRVSTERRLALARRARDADDLFGALAHPDDGIAALIPCDGALVMLGGRTLSIRGDFERQAGNVLQRLQRDPERDIYHTDNWPQPSEDSPDGGDCCGVLAIRFHRQESGWIFWFRHEEVHRIRWGGKPEKLLTIGPSGPRLTPRGSFEAWEEVVRGHSTPWSETDLAIAEKLRLDLMELCLNHAAEVDRMRQRLIAVLGHDLRNPLQSISMAAALLSSSDTRTTELRQHISASSSRMERLVSQILDMSRLQSGIGLTVNPVDTDVSQLVRQIVCETDVAYPGLVIEIAIDPQVRAVVDPDRYAQVAANLLSNARHHGLPGRPVLVTLTRQGDEVCLSVLNETSGLSEAQLANLFEPFKRESADNQRNRNGLGIGLYISQAIAQAHQGRIDVDCRDDVITFCLRLPVRQAETGSSS | failed |
| MSEPRLPERAEWGTFALILACYGAWLAVIFGLAGLSLWLAIAAMGLVAALHSSLTHEALHGHPFRYRWLNEALMALPLTLCIPYNRFRDLHLAHHLDANLTDPYDDPESNYLDPAIWSRLPGWQRRLYALNNTLAGRMVLGPLIGTACFLRDEARGALRGDRAILLAWALHLPGMAGVLWVVSLSPMPIWAFALSAYIGLGLLKIRTFLEHRAHEKSRARTVVIEDRGLLAFLFLNNNYHVVHHMNPGAPWYALPALYRAGKERYLGCNEGYSYRSYGEVFRRYFWRAKDPVPHPLWPKP | failed |
| MSNWPYPRIVAHRGGGKLAPENTLAAIDVGAKYGHKMIEFDAKLSKDGEIFLLHDDNLERTSNGWGVAGELNWQDLLRVDAGSWYSKAFKGEPLPLLSQVAERCREHGMMANIEIKPTTGTGPLTGKMVALAARQLWAGMTPPLLSSFEIDALEAAQQAAPELPRGLLLDEWRDDWRELTARLGCVSIHLNHKLLDKARVMQLKDAGLRILVYTVNKPQHAAELLRWGVDCICTDAIDVIGPNFTAQ | not failed |
| MSLEAVTILLADDEAILLLDFESTLTDAGFLVTAVSSGAKAIEMLKSGAAIDGVVTDIRFCQPPDGWQVARVAREIDPNMPIVYISGHAALEWASNGVPDSIILEKPFTSAQLITAVSQLLNAREGHHHHHH | not failed |
| MPKTLIILAHPNISQSTVHKHWSDAVRQHTDRFTVHELYAVYPQGKIDVAAEQKLIETHDSLVWQFPIYWFNCPPLLKQWLDEVLTYGWAYGSKGKALKGRKIALAVSLGAPAADYRADGAVGCSVAEVLRPFELTAKYCNADYRPPFTFHTIDSNAGYSEAARQEVERSARDYLAWLDALEHHHHHH | not failed |
| MHTARFPSSATPSIFFRYFMALNEQDVARIARLALIELPPDQRGRAQAELNGILHLIERLQAVDTQGVEPLAHPLSAHEDITLRLREDAVSEQATEARRAELLANAPESADGLFLVPKVIE | failed |
| LKDVLNILLMDEISKLKDFLSNLDYIKPKVNIEEEIIEIRKEDIINALKLFKGKYEIEVDKIPKAVYVYLVKKNILFLYPQRGTLKPQSFLVWNAIKRVL | not failed |
| MSLEQASVTNDFSENKQGCIQHPWQGKKVGYIGDSITDPNCYGDNIKKYWDFLKEWLGITPFVYGISGRQWDDVPRQAEKLKKEHGGEVDAILVFMGTNDYNSSVPIGEWFTEQEEQVLSAHGEMKKMVTRKKRTPVMTQDTYRGRINIGITQLKKLFPDKQIVLLTPLHRSLANFGDKNVQPDESYQNGCGEYIDAYVQAIKEAGNIWGIPVIDFNAVTGMNPMVEEQLIYFYDAGYDRLHPDTKGQERMARTLMYQLLALPVAFEGHHHHHH | not failed |
| KQVAEIGDRAVELVHDGSLLAPEDMGPYVAPIAFNALPFAGNLVEDGTEETDEEQKLRNESRKILGLPDLKVAGTCVRVPVFTGHTMVVHAEFNNAITPEQAREVLGNAAGVDVVDVPTPLAAAGVDNSLVGRIRQDQTVDDNKGLVFVVSGDNLRKGAALNAIQIAELLV | failed |
| MSAIPENANVTVLNKNEKKARELIGKLGLKQIPGIIRVTFRKKDNQIYAIEKPEVFRSAGGNYVVFGEAKVDNFTQKLAAAQQQAQASGIMPSNEDVATKSPEDIQADMQAAAEGSVNAAAEEDDEEGEVDAGDLNKDDIELVVQQTNVSKNQAIKALKAHNGDLVNAIMSLSK | failed |
| MGEVKDLGMADHGGFDLKIGARVVLEDVKLGDSIAVNGTCLTVTEFNAEEFTVGLAPETLRKTSLEELKKGSPVNLERALQPVSRMGGHVVQGHVDGTGVIESMEVEGDSLWVKVKADKGLLKYIVPKGFVAVDGTSLTVVDVFDEESCFNFMMIAYTQQNVVIPTKKIGQKVNLEVDIMGKYVERLLTSGGFSKGN | failed |
| GDAQAGLVLLHGRGASAQGMLQLADDLDVPDIAHLAPQARMRSWYPQSFMAPRDQNEPELASALATIGDVLGRLADAGIGPARTVLLGFSQGACLATTYAAQTPQRYGGVVGLSGGLIGPDGASFDYEGSLDATPVFLGCSDQDPYIPRARVAETADVLRALNADVTSRIYEGLGHTINDAERQHARSLLRRCVD | failed |
| MKIRDLLKARRGPLFSFEFFPPKDPEGEEALFRTLEELKAFRPAFVSITYGAMGSTRERSVAWAQRIQSLGLNPLAHLTVAGQSRKEVAEVLHRFVESGVENLLALRGDPPRGERVFRPHPEGFRYAAELVALIRERYGDRVSVGGAAYPEGHPESESLEADLRHFKAKVEAGLDFAITQLFFNNAHYFGFLERARRAGIGIPILPGIMPVTSYRQLRRFTEVCGASIPGPLLAKLERHQDDPKAVLEIGVEHAVRQVAELLEAGVEGVHFYTLNKSPATRMVLERLGLRPASGQP | not failed |
| MGARTPPCGREIVRVLPSERLISGNGEGAPLPDSHSELPPVIRRTEFVAYALAGLLLIAVIGVLYFAKAFFLPVVMAVVAGTMLSPAASFLERRGVPRALGAVLIVTAVTTVVAFVVALIAVPAMEWSSRLPELGAQLKEKLHVFDRPLALWKELQTMVGGSEGLPSLPLPKAEWVQPTLEFLSPTFAEFLLFFATLILFIASWRDLRRALIMNFGDRDARLRTLRILNEIEVHLGNYLLTVTVINIGVGVATGIICAITGMPNPAGLGALAAALNFIPIIGPIAMFIVLIVVGLVAFPTLGGGLMAGLAFGGITFLEGHFVTPTIIGRRLSLNALAVFIALAFWTWLWGPMGAFLSSPLLIVGLILKEHLLPENSPQLPQA | failed |
| MIVIYFFSTKSQQFFAYVWAIFPVIAFFLVSFYTLDFLFSPSYLIMVPVFTIMFKINYKKDYSFVALLKMSIRQFVISFLAFIASSSFSWSIILNSSVTFLIVYLFYSSATPMRYHSYLMMFTFCQLIQVKGNTFLMQSQVVAFLIGLFLLALTLNAWWQTGLRQLTSLKSRGHVRFFKSIQLNMKQQKLAVINFWHDLQQIFFGITSFKQFLESPDERVQRFRLAIRMSFTITLSFILMWSVGGIKIIWIPMNVFLLLHPVKAEMNTRIKTRFWGTLLGCFLSLFVVNWLQLPLTHLIVSSLIGIFVYALKPGTVLQVTMATIFGLCLATISLRGMYAAELRVSFVLLAIFVVCLIDLGLFVYQRILRF | failed |
| MYLTREEERILAGEEGEARAKALEVIVKVGEAVGAERLIPIKHAHVSGASYMTIGDAGLRFLARLAESGARFSVPTTVNPVSYDVEEPGAIPMTRLSPRIVKAQSEILKALEAMGADLILTCTPYYTEVPRRVGLREGDSVAWGESSAVAYANSVLGIHTNREGGPLALMAGIAGRTYFYGAHDPEWRKPRVAYRLETPKVLDETEAGVLGEVIATQHRDEHPPLLDAPLGGEAALKEFSAAVGSAGSLAMVHITGVTPGDPGDMIEEVVTMDYGDLARRMEDLAPGFEPDILYVGCPHASIEELRRLYRALSKAGERAGRRTVVSISRSLYLQALREGLVEKLKGLGVRFVRDSCLIVSPFSSGARGVRVATNSYKAYFYLSKKGVEVGLAPIEALPKLVS | failed |
| MRLNYPSKVSEEGFQVMVLSLSILKKSFNDFLSTRMLLINLGPILLSLAFFGAVFYYNGGNIVGYCQTLLPQSLNDYSHSQGFFAGVFAWVFKALVYFLIFWIVILLSLVINIFASIFYTPLVVSYLHQKYYPHVVLEEFGSILFSIKYFLKSLAFMLLFLAVLTPFYFIPFIGVFGVFFSIVPHFLFFKNTMSLDIASMIFNHQSYQNLLKQHRLKHYRFSFFCYLFSLIPFFNFFATLLQTLMLTHYFFIFKEKEC | not failed |
| MRQRTIVCPLIQNDGCYLLCKMADNRGVFPGQWALSGGGVEPGERIEEALRREIREELGEQLILSDITPWTFRDDIRIKTYADGRQEEIYMIYLIFDCVSANRDICINDEFQDYAWVAPAALALYDLNVATRHTLALKGLL | not failed |
| MKRLIAATLVAAMGVSLLTGCGVSNKSHDNTQVGTTENSSDKAKNKEVKMHVWCSKDDVDITTQMIESFKEANKGTDFNIIIEESEDSDARDNILSNVHNGADVFPIADDQITSMVAGGALYEIEDVDAVKKANDESAVEAATIDGKLYGYPLTADNGYFMYYNKNYFSDSDVATLDGMLDIAGANGKYLTMDWSSGWYLYSFFGNTGLDFGVNDDGVTNHCNWNAIITDIKGVDIAQAMLDIAAKPGFKNCVQDDFIAGVQDGSIIAGVSGCWNAAKIKELWGDDYGAVKLPTYTCAGQQIQMSSFKGYKYMAVNAYTKYPEWANKLAQWFTNEDNQKLRFEMKNVGPANKAAAADDAVKKVPAIMAVMDQAQYGKLQRVGNSYWDAATEFGEKMAAGNPDNTDLQEIMDNLVAGITQSVAE | failed |
| MGSGKERDTFVYLAKLSEQAERYEEMVESMKSVAKLNVDLTVEERNLLSVGYKNVIGSRRASWRIFSSIEQKEAVKGNDVNVKRIKEYMEKVELELSNICIDIMSVLDEHLIPSASEGESTVFFNKMKGDYYRYLAEFKSGNERKEAADQSLKAYEIATTAAEAKLPPTHPIRLGLALNFSVFYYEIMNAPERACHLAKQAFDEAISELDTLNEESYKDSTLIMQLLRDNLTLWTSDISEEGGDDAHKTNGSAKPGAGGDDAE | failed |
| KGMIRPRGLNQQRYVKEVLSNDINFGIGPAGTGKTYLAVACAVDALEREQIRRILLVRPAVEAGEKLGFLPGDLAQKIDPYLRPLYDALYEMLGFEYVAKLIEKQVIEVAPLAYMRGRTLNNSFIILDESQNTTVEQMKMFLTRIGFGSTAVITGDITQVDLPKGTRSGLTHVIDVLKDVPGISFTHFKPKDVVRHPLVQRIVEAYERFDDQLSDGPSGNNG | not failed |
| MKGSLIIVGFFVLGALCGVYHLIPYDFTQSKLSFYALCALMFSVGVSVGNDPQTLRNFRSLNPRLIFLPVMTILGTLAGCAVVSLFLS | failed |
| MSKGTTSQDAPFGTLLGYAPGGVAIYSSDYSSLDPQEYEDDAVFRSYIDDEYMGHKWQCVEFARRFLFLNYGVVFTDVGMAWEIFSLRFLREVVNDNILPLQAFPNGSPRAPVAGALLIWDKGGEFKDTGHVAIITQLHGNKVRIAEQNVIHSPLPQGQQWTRELEMVVENGCYTLKDTFDDTTILGWMIQTEDTEYSLPQPEIAGELLKISGARLENKGQFDGKWLDEKDPLQNAYVQANGQVINQDPYHYYTITESAEQELIKATNELHLMYLHATDKVLKDDNLLALFDIPKILWPRLRLSWQRRRHHMITGRMDFCMDERGLKVYEYNADSASCHTEAGLILERWAEQGYKGNGFNPAEGLINELAGAWKHSRARPFVHIMQDKDIEENYHAQFMEQALHQAGFETRILRGLDELGWDAAGQLIDGEGRLVNCVWKTWAWETAFDQIREVSDREFAAVPIRTGHPQNEVRLIDVLLRPEVLVFEPLWTVIPGNKAILPILWSLFPHHRYLLDTDFTVNDELVKTGYAVKPIAGRCGSNIDLVSHHEEVLDKTSGKFAEQKNIYQQLWCLPKVDGKYIQVCTFTVGGNYGGTCLRGDESLVIKKESDIEPLIVVKK | failed |
